Measurements as given in US20210055300A1 (EISAI R AND D MANAGEMENT, published 2021).

How the values were obtained:
[1] = target: T1, refolded rhAPOA4-His monomer (human, UniProt P06727 21-396); assay: ELISA, antigen captured by anti-6xHis antibody, hybridoma supernatant
T1 construct: not shown: C-terminal histidine tag
T1 sequence: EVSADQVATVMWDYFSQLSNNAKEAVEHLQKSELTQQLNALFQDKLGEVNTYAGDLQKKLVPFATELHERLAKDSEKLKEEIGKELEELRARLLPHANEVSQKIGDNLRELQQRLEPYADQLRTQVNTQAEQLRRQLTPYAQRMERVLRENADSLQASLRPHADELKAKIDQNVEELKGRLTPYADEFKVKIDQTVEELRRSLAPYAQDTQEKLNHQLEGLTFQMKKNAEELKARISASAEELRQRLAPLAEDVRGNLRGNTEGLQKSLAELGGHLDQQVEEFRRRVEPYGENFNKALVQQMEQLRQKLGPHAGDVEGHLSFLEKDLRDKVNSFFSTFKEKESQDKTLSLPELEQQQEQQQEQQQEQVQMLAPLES
Experimental: Using the culture supernatant of the hybridoma obtained in (1), the reactivity to rhAPOA4-His was evaluated by ELISA as follows.
50 μL/well of a 50 mM Tris buffer (pH 7.5) containing 2 μg/mL of an anti-6×His rabbit polyclonal antibody (anti-6×His antibody, manufactured by Bethyl Laboratories) was added to a 96-well plate (manufactured by Nunc), and incubation was performed at 4° C. overnight. After removing the anti-6×His antibody solution, blocking was performed by adding 100 μL/well of 50 mM Tris-buffered saline solution (pH 7.5) containing 0.01% Tween 20 and 5% skim milk, and the plate was left at room temperature for 1 hour. After washing the well three times with Tris-buffered saline solution (pH 7.5) (washing solution) containing 0.01% Tween 20, rhAPOA4-His prepared in Example 1 or refolded rhAPOA4-His monomer prepared by the method described below was added at a concentration of 450 ng/mL (10 nM) by 50 μL/well, and incubation was performed at room temperature for 1 hour. The refolded rhAPOA4-His monomer was prepared by diluting rhAPOA4-His prepared in Example 1 two-fold with a 50 mM Tris-buffered saline solution (pH 7.5) containing 8 M urea (manufactured by Wako Pure Chemical Industries, Ltd.), leaving at room temperature for 30 minutes, and diluting 50-fold with a 50 mM Tris-buffered saline solution (pH 7.5) (reaction solution) containing 4% Block Ace (manufactured by DS Pharma Biomedical Corporation) and 0.01% Tween 20. After washing the well three times with the washing solution, the culture supernatant of the hybridoma was added to the well and incubation was performed at room temperature for 1 hour. After removing the added culture supernatant, the well was washed three times with the washing solution. A horseradish peroxidase-labeled anti-mouse IgG antibody (manufactured by Jackson ImmunoResearch Laboratories) appropriately diluted with the reaction solution was added at 50 μL/well, incubation was performed at room temperature for 1 hour, and then the well was washed 5 times with the washing solution. […]

[2] = target: T2, rhAPOA4-His dimer (human, UniProt P06727 21-396); assay: statement of the description; experiment is the ELISA of Example 4 (FIG. 1)
T2 construct: also called APOA4 dimer; dimer of rhAPOA4-His; not shown: C-terminal histidine tag
T2 sequence: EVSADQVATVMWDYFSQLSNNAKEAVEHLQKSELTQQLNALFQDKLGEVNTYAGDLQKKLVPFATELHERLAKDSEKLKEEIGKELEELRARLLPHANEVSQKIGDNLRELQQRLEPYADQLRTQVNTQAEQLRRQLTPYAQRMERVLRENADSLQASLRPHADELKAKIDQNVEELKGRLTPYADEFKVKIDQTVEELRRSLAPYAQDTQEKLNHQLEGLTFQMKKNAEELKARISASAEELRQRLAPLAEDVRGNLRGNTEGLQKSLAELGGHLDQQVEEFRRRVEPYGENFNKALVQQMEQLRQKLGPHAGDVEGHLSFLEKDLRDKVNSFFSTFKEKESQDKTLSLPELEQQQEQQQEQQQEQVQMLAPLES
Experimental: (§1) 50 μL/well of a 50 mM Tris buffer (pH 7.5) containing 2 μg/mL of an anti-6×His rabbit polyclonal antibody (anti-6×His antibody, manufactured by Bethyl Laboratories) was added to a 96-well plate (manufactured by Nunc), and incubation was performed at 4° C. overnight. After removing the anti-6×His antibody solution, blocking was performed by adding 100 μL/well of 50 mM Tris-buffered saline solution (pH 7.5) containing 0.01% Tween 20 and 5% skim milk, and the plate was left at room temperature for 1 hour. After washing the well three times with a Tris-buffered saline solution (pH 7.5) (washing solution) containing 0.01% Tween 20, the rhAPOA4-His monomer or dimer prepared in Example 2 was diluted so as to be 450 ng/mL with a 50 mM Tris-buffered saline solution (pH 7.5) (reaction solution) containing 1% Block Ace (manufactured by DS Pharma Biomedical) and 0.01% Tween 20, and added thereto at 50 μL/well. After incubating at room temperature for 1 hour, the well was washed three times with the washing solution, and then the anti-human APOA4 monoclonal antibody obtained in Example 3 was diluted with the reaction solution so as to be 1 μg/mL and added thereto at 50 μL/well. After the incubation at room temperature for 1 hour, the well was washed three times with the washing solution. Subsequently, 50 μL/well of a horseradish peroxidase-labeled anti-mouse IgG antibody (manufactured by Jackson ImmunoResearch Laboratories) appropriately diluted with the reaction solution was added, incubation was performed at room temperature for 1 hour, and the well was washed 5 times with the washing solution. 50 μL/well of a TMB (3,3′,5,5′-tetramethylbenzidine) solution was added and incubation was performed at room temperature for 15 minutes. The reaction was stopped by adding 50 μL/well of 1N H₂SO₄ in the equivalent volume to that of the TMB solution, and the absorbance of 450 nm was measured using a microplate reader (manufactured by ThermoFisher Scientific).

[3] = target: T3, rhAPOA4-His monomer (human, UniProt P06727 21-396); assay: as above
T3 construct: also called APOA4 monomer; monomer of rhAPOA4-His; not shown: C-terminal histidine tag
T3 sequence: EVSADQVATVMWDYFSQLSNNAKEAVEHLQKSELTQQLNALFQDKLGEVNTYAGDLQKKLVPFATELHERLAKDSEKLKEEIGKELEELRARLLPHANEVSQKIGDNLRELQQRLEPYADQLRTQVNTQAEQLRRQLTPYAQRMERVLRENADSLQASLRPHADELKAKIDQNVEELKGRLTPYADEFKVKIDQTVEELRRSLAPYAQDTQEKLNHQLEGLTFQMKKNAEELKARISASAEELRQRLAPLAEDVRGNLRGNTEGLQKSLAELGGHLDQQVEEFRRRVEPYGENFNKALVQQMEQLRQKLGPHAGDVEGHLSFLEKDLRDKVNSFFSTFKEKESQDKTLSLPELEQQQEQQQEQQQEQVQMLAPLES
Experimental: as §1

[4] = target: T4, APOA4 in human serum (human, UniProt P06727 21-396); assay: sandwich ELISA on diluted human serum, labeled detection antibody with No. 30 as capture
T4 construct: Native protein in serum of healthy humans (monomer and dimer); also called human serum APOA4; APOA4 in the specimen
T4 sequence: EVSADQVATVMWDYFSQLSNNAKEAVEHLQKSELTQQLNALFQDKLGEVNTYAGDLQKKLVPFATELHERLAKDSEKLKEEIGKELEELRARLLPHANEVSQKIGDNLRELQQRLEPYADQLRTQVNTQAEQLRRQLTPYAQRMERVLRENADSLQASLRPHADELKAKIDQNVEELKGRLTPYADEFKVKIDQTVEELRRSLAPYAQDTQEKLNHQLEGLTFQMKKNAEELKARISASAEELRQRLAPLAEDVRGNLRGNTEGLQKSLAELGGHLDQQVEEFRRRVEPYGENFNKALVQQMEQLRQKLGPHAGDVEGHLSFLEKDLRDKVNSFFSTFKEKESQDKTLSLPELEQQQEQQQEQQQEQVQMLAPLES

[5] = target: T4, APOA4 in human serum; assay: sandwich ELISA, capture antibody
Experimental: (§2) Anti-human APOA monoclonal antibody No. 30 was adjusted to a concentration of 2 μg/mL with a 50 mM Tris buffer solution (pH 7.5). Antibody No. 30 solution was added to a Maxisorp cup (NUNC, manufactured by C8 Maxisorp) at 100 μL/well, the Maxisorp cup was put in a wet box and allowed to stand at 4° C. overnight, and antibody No. 30 was coated on the well. After removing antibody No. 30 solution by suction, a 50 mM Tris-buffered saline solution (pH 7.5) (blocking solution) containing 5% skim milk, 0.1% sodium azide, and 0.01% Tween 20 was added at 200 μL/well, and then the cup was left at room temperature for 2 hours or at 4° C. for 1 day or more (hereinafter, the prepared Maxisorp cup is referred to as “antibody No. 30 cup”). […] After stopping the reaction by injecting 100 μL/well of 0.5 M H₂SO₄, the absorbance was measured at a wavelength of 450 nm, and an APOA concentration was calculated using the rhAPOA4-His of a known concentration as a standard substance.

[6] = target: T5, recombinant human APOA4 in which a histidine tag is bound to the C-terminal of human APOA4 (human, UniProt P06727 21-396); assay: HDX-MS of rhAPOA4-His with and without antibody
T5 construct: Secreted from Expi293F cells and purified from the supernatant; Unfractionated mix of monomer and dimer; also called rhAPOA4-His; rhAPOA-His; not shown: C-terminal histidine tag
T5 sequence: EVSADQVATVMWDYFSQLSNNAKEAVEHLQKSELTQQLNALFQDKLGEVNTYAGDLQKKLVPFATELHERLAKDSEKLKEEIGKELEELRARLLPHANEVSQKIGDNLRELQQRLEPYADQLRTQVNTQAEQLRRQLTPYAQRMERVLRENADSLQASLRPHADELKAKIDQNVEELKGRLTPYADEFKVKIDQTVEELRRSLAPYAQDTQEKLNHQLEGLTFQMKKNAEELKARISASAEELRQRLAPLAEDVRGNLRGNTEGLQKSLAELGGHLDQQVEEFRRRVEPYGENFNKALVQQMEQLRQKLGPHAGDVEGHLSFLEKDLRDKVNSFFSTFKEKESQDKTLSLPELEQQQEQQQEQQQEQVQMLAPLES
Experimental: A solution in which about 10 μM of antibody No. 30 or antibody No. 33 were added to 10 μM of rhAPOA4-His and rhAPOA4-His and mixed therewith was diluted 20-fold with a PBS deuterium solution to start a deuteration reaction. As a control, a PBS solution was used.
After 1 minute, 10 minutes, 60 minutes, and 240 minutes at 23° C., an equivalent amount of 500 mM TCEP solution (pH 3 or less) containing cooled 2M guanidine hydrochloride was added to stop the reaction. After digesting the reaction solution with a pepsin column, peptide was separated and eluted by reversed-phase liquid chromatography using a C18 column, and LC-MS/MS measurement was performed with a mass spectrometer.
Each peptide derived from rhAPOA4-His was identified from the mass data, and the amount of deuterium exchange at each reaction time was calculated from the mass value. The peptide in which the amount of deuterium exchange was changed depending on the presence or absence of the antibody was extracted as an estimated epitope region.

[7] = target: T4, APOA4 in human serum; assay: sandwich ELISA, labeled detection antibody
Experimental: as §2

Measured: binding result

B1: anti-APOA4 monoclonal antibody No. 37 (antibody, IgG1, V domains shown)
VH: QVQLQQSGAELVKPGASVKISCKASGYTFSNYWLNWVKLRPGKGLEWIGQIYPGDGDTNYNGKFKGKATLTADKSSSRAYMQLSSLTSEDSAVYFCARRNNYVMDYWGQGTSVTVSS
VL: DIVMTQSHKFMSTSVGDRVSITCKASQDVGTSVAWYQQKLGQSPKLLINWASIRHTGVPDRFTGSGSGTDFSLTISNVQSEDLADHFCQQYSSYPFTFGSGTKLEIK
notes: Mouse hybridoma antibody; also called anti-human APOA4 monoclonal antibody No. 37; HRP-labeled antibody No. 37
binds: [1] | [2] | [3] | [4]

B2: anti-APOA4 monoclonal antibody No. 30 (antibody, IgG2b, V domains shown)
VH: EVQLQQSGPELVKPGASVKISCKASGYSFIGYFMSWVKQSHGKSLEWIGRINPYNGDTFYNQKFKGKATLTVDKSSSTAHMELLSLTSEDSAVYYCGRGIIGFDYWGQGTTLTVSS
VL: DIQMTQSPASLSASVGETVTITCRPSENIHSYLAWYHQKQGKSPQLLVYDATTLAEGVPSRFSGSGSGTQFFLKINSLQPEDFGSYYCQHHYVSPWTFGGGTKLEIK
notes: Mouse hybridoma antibody purified with Protein A; Used as capture antibody coated on the well in the sandwich ELISAs; also called anti-human APOA4 monoclonal antibody No. 30; Anti-human APOA monoclonal antibody No. 30
binds: [1] | [5] | [2] | [3] | [6]

B3: anti-APOA4 monoclonal antibody No. 33 (antibody, IgG1, V domains shown)
VH: QVHLQQSGAELVRPGSSVKISCKASGYAFSIYWMNWVRQRPGQGLEWIGQIYPGDGDTTYNGKFKGKATLTADKSSNTAYMHLSSLTSEDSAVFFCARRGDYVYDYWGQGTTLTVSS
VL: DIVMTQSHKLMSTSVGDRVSITCKASQDVGTAVAWYQQKPGQSPKLLIYWASTRHTGVPDRFTGSGSGTDFTLTIYNVQSEDLADYFCQQYSTYPFTFGSGTKLEIK
notes: Mouse hybridoma antibody; unlabelled in HDX-MS; also called anti-human APOA4 monoclonal antibody No. 33; HRP-labeled antibody No. 33
binds: [1] | [2] | [3] | [6] | [7]
